Test results as given in the supplement of paper PMC12455559.
± gives the standard deviation of the averaged measurements.

Columns and labels:
[1] = melting temperature (DSF); higher = more thermostable
How it was run: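 Values are melting temperatures from differential scanning fluorimetry. Candidate enzymes were expressed in E. coli C41(DE3), purified on nickel beads and freed by SUMO protease cleavage. In sealed PCR plates on a Bio-Rad CFX96, 45 μL enzyme (0 to 0.3 mg/mL) was combined with 5 μL 5X Sypro Orange. Fluorescence was recorded from 25 °C for 250 cycles, rising 0.3 °C per cycle at a ramp of 0.3 °C/s.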

[2] = purified protein yield per well (BCA); higher = higher soluble expression
How it was run: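 Expression was done in E. coli C41(DE3), using 2 mL autoinduction cultures with 100 µg/mL kanamycin incubated at 37 °C for 2 h and at 18 °C for 40 h. Protein was purified on Ni-charged magnetic beads and released by SUMO protease cleavage. Yield of purified protein per well was measured with the Pierce Rapid Gold BCA kit; values below 25 ug (0.1 mg/mL) are below detection.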

[3] = PET hydrolysis, aromatic products released after 48 h (umol product/mg enzyme); higher = more PET depolymerization activity
How it was run: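 Sealed plates containing 3.5 mg PET (amorphous film or crystalline powder), 450 μL buffer and 5 μg (50 μL) tagless candidate enzyme were held 48 h at 40 or 60 °C with no shaking. Supernatants were then read at 260 and 280 nm against buffer blanks. The aromatic product detected this way, per mg enzyme, defines PET hydrolysis activity.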

[4] = substrate: cryPow, 40 °C, pH 4.5
[5] = substrate: cryPow, 40 °C, pH 5.5
[6] = substrate: cryPow, 40 °C, pH 6.5
[7] = substrate: cryPow, 40 °C, pH 7.5
[8] = substrate: cryPow, 60 °C, pH 4.5
[9] = substrate: cryPow, 60 °C, pH 5.5
[10] = substrate: cryPow, 60 °C, pH 6.5
[11] = substrate: cryPow, 60 °C, pH 7.5
[12] = substrate: aFilm, 40 °C, pH 4.5
[13] = substrate: aFilm, 40 °C, pH 5.5
[14] = substrate: aFilm, 40 °C, pH 6.5
[15] = substrate: aFilm, 40 °C, pH 7.5
[16] = substrate: aFilm, 60 °C, pH 4.5
[17] = substrate: aFilm, 60 °C, pH 5.5
[18] = substrate: aFilm, 60 °C, pH 6.5
[19] = substrate: aFilm, 60 °C, pH 7.5

Sequence | melting temperature [1] | purified protein yield per well [2] | PET hydrolysis [3, 4] | PET hydrolysis [3, 5] | PET hydrolysis [3, 6] | PET hydrolysis [3, 7] | PET hydrolysis [3, 8] | PET hydrolysis [3, 9] | PET hydrolysis [3, 10] | PET hydrolysis [3, 11] | PET hydrolysis ([3]; substrate: cryPow, 40 °C, pH 8.5) | PET hydrolysis ([3]; substrate: cryPow, 60 °C, pH 8.5) | PET hydrolysis [3, 12] | PET hydrolysis [3, 13] | PET hydrolysis [3, 14] | PET hydrolysis [3, 15] | PET hydrolysis [3, 16] | PET hydrolysis [3, 17] | PET hydrolysis [3, 18] | PET hydrolysis [3, 19]
ADNPYQRGPDPTPTSVTAVNGPFANTSVAVPTGYGFNGGRIYYPTDTSQGTFGAIAISPGYTALFSAELAWMGPWLASHGFVVIGIETNSRNDFDTARGTQLLAALDYLTQQSPVRDRVDPNRLAVAGHSMGGGGALSAATRRSSLKAAVGIAPYSPSSNLANDRVPTMIFAGQADTVVTPSYASGLYNSLPATTESVYLEVAGADHGFMVGRSNPVMVRTMLPFVKMFIDNDTRYSQFLCPLMDSSGVVTSRSTCPLLPSDPTTPTPTPTTPDPTPTVPPGSASEIVGTQSGRCIDVPNASRTNGTRVQLYNCNRQTNQAWTYTSNKQLQVYGTMCLDAAGSGNGAAVQIYSCHSGTNQQWNVNSNGTISGVQSGRCLDVWSTSNGAQVQLYDCHGQTNQQFRLAPLG [ESM132] | 56.2 C | 144 µg | < 3 | 5 | < 3 | < 3 | < 3 | < 3 | < 3 | < 3 | – | – | – | – | – | – | – | – | – | –
ADNPYQRGPDPTQSSVSASRGTFATAQVGVPAGNGFGGGVIYHPTDTSQGTFGAVAIVPGYTATWAAEGAWMGHWLASFGFVVIGIDTNNRNDWDTARGTQLLAALDYLTQRSSVRDRVDPSRTAVMGHSMGGGGAMYAALQRPSLKTAVGLAPFSPSQNLTTTRVPTMLLSGQNDTTTTPASIVNLYNGIPSSVEKAYLELTGAGHGFPTSNNSTMMRNVIPWLKIFVDSDTRYTQFLCPLSDSNGIRTYQNTCPLVPSPVPTTTSTTSSTSTTTTSTTTTTTTSVPVGACSATYRTTNAWSGGYQGEVTVAAGDSAVNGWTVRWTLDSGQTISQVWNGTLSATGSAVSVRNASYNGSLRPGTSTTFGFIAGGAPSTPVLSCTSP [DP072] | 58 C | 89 µg | – | < 3 | 8 | 24 | – | < 3 | < 3 | < 3 | 32 | 3 | – | – | – | – | – | – | – | –
ADNPYQRGPDPTQSSVTAVNGPFANTSVSVPTGYGFNGGRIYYPTDTSQGTFGAIAISPGYTALFSAELAWMGPWLASHGFVVIGIETNSRNDFDTARGTQLLAALDYLTQQSPVRDRVDPTRLAVAGHSMGGGGALSAAMRRPSLKAVVGIAPYSPSSNLANDRVPTMILSGQADTVVTPSYATGLYNSLPSTTESVYLEVAGADHGFMVGRPNPVMVRTMLPFVKMFVDNDARYSQFLCPLLDSSGVVTYRSTCPLLPTTPTTPTPTTPGPTTPGPTPTVSPSVPPTSAGEIVGTQSGRCIDVPNASRNNGTRVQLYDCNRQTNQTWTYTSGKQLQVYGNMCLDAAGTGNGAAVQIYSCHSQTNQQWNINANGTISNVQSGRCLDAWSTANGAQIQLYDCHGQTNQQFRLVARA [ESM075] | 62.2 C | 233 µg | 12.5 ± 2.1 | 21 ± 1.4 | 23 ± 1.4 | 7 | < 3 | 1.5 ± 2.1 | < 3 | < 3 | – | – | < 3 | 4 | < 3 | < 3 | < 3 | < 3 | < 3 | < 3
ADNPYQRGPDPTRASVAAENGPFANTSVSAPTGYGFNGGRIYYPTDTSQGTFGAIAISPGYTALFSAELAWMGPWLASHGFVVIGIETNSRNDFDTARGTQLLAALDYLTQQSPVRDRIDPNRLAVSGHSMGGGGALSAAMRRSSLKAVVGITPYSPSSNLANVQVPAMVISGQADTVVTPSYALGLYNSLPASTESAYLEVAGGDHGFMVGRSNPVLIRTMLPFVKMFVDNDARYSQFLCPLLDNSGVVTYRSTCPLLPPPTATPTPTGTPTPTPTPTVSPTTPPNSANRIVGVQSGRCIDVPNASRDNGTRVQLYDCHGQSNQSWTYTASKQLRVYGDMCLDAGGSGNGAGIQIYSCHSQTNQQWNVNSNGTISGVQSGRCLDVWSTSNGAQVQLYDCHGQTNQQFNLVPLT [TEP167] | 57.1 C | 180 µg | < 3 | < 3 | < 3 | < 3 | < 3 | < 3 | < 3 | < 3 | – | – | – | – | – | – | – | – | – | –
ADNPYQRGPDPTRASVAAVNGPFANTSVSVPTGYGFNGGRIYYPTDTSQGTFGAIAISPGYTALFSAELAWMGPWLASHGFVVIGIETNSRNDFDTARGTQLLAALDYLTQQSPVRDRVDPNRLAVSGHSMGGGGALSAAIRRSSLKAAVGITPYSPSQNLANDRVPTMVISGQADTVVTPSYALNLYNSLPASTESVYLEVAGGDHGFMVGRSNPVLIRTMLPFLKMFVDNDSRYSQFLCPLLDSSGVVTYRSTCPLLPTDPTTPPTGSPTPTPTTPPPSGSANEIIGTQSGRCVDVPNASRNNGTRVQLYDCNKQTNQSWTYTSNRQLRVYDNMCLDAAGSGNGAAIQIYTCHSGTNQQWNVNSNGTITGVQSGRCLDVWSSNNGAQIQLYDCHGQPNQQFRLAPLA [TEP010] | 62.8 C | 269 µg | 13.5 ± 2.1 | 24 | 41 ± 1.4 | 27 ± 4.2 | < 3 | 6 ± 1.4 | 5 ± 1.4 | 2 ± 2.8 | – | – | < 3 | < 3 | < 3 | < 3 | < 3 | < 3 | < 3 | < 3
